Test results from patent US9289381B2, “Stabilization and storage of biological pharmaceutical compositions” (The University of North Carolina at Charlotte, priority 2009, dated 2016).
“And” between values parts separate entries of the source, which are not always exact repeats. Equal values may be shown once.

What was measured:
[1] = Microcalorimetry (DSC) of HEWL dispersions stored in 80% w/w CDHP or 0.1M NaOAc; format: physicochemical; set-up: Thermal transition midpoint temperature of HEWL: unit not given here
Experimental: The samples were formulated in 2 ml silanized glass vials to reduce protein-surface interactions, covered with cap and septa, wrapped with parafilm to ensure no drying out of the sample, and stored away from sunlight. They were stirred for at least 24 hours until a homogeneous distribution of protein was obtained. […] The 35 silanized vials were exposed to UV light for 24 hours to ensure sterility. Control samples at equivalent concentrations were also prepared in triplicates in 0.1M NaOAc buffer (pH 4). Samples were tested for thermal stability via microcalorimetry and functional activity via the micrococcus lysodeikticus assay at monthly intervals.
A MicroCal VP-DSC microcalorimeter was used to assess thermal structural stability of all samples. Baseline repeatability was established with a minimum of 5 buffer-buffer scans. […] HEWL solutions were tested similarly with no dilution of the samples. Between samples, during the filling period of 15° C. to 25° C., the sample cell of the DSC was flushed with at least 25 ml distilled H2O, then at least 15 ml NaOAc to ensure no sample residue remained behind. Thermal profiles, enthalpy changes, and transition temperatures were obtained with Origin software.
All formulations were diluted to 0.1-0.5 mg/ml for testing. This allows one to observe how well protein thermal stability and structural integrity is maintained following storage and then dilution into a solution of similar composition as the environment of the body.

[2] = Microcalorimetry (DSC) of 1 mg/ml HEWL solutions in 0-40% w/w CDHP or 20% choline chloride in 0.1M NaOAc; format: physicochemical
Experimental: All samples were prepared in triplicate. A MicroCal VP-DSC microcalorimeter was used to assess thermal structural stability of all samples. […] HEWL solutions were tested similarly with no dilution of the samples. Between samples, during the filling period of 15° C. to 25° C., the sample cell of the DSC was flushed with at least 25 ml distilled H2O, then at least 15 ml NaOAc to ensure no sample residue remained behind. Thermal profiles, enthalpy changes, and transition temperatures were obtained with Origin software.

[3] = test system: micrococcus lysodeikticus; assay: Micrococcus lysodeikticus turbidimetric assay of HEWL enzyme activity; format: biochemical; settings: formulated in NaOAc compared with 80% w/w CDHP, 10 and 100 mg/ml, 5 months
[4] = Sedimentation analysis of HEWL dispersions (centrifugation, BCA); format: physicochemical; settings: HEWL dispersion in 80% w/w CDHP, 75 minutes at 15000 RPM
Experimental: The presence of any CDHP crystals was also noted. […] Images were taken using SlideBook.
The second approach to verify these sample compositions was to determine the amount of protein in the dispersed phase after separation of the solid and liquid components by centrifugation. To achieve separation of these components, solutions were centrifuged for 75 minutes at 15000 RPM, about 10% remained in the supernatant. Both the decanted supernatant and the pellet, which was re-suspended in buffer, were analyzed for protein content. It was observed that ˜90% of the formulated protein was contained in the pellet. The remaining about 10% of the formulated protein was found in the supernatant. […] Although the supernatants appeared clear it is possible that there are sub-visible particles of lysozyme in the supernatant that resist sedimentation at this rate.

[5] = 350 mg/ml vs 1 mg/ml, aqueous solvent; cited from earlier work
[6] = stored at 100 mg/ml in Choline dhp, 3 months
[7] = stored at 100 mg/ml in Choline dhp, 4 months
[8] = stored at 100 mg/ml in Choline dhp, 5 months
[9] = 20% w/w Choline Chloride in 0.1M NaOAc

With “HEWL: hen egg white lysozyme (HEWL), a well characterized protein, purchased from Worthington Biochem” as the substance, how does the “Enthalpy of unfolding of HEWL” value [1, 6] read?
Its value is 55235 cal/mol and 57272 cal/mol and 54900 cal/mol.

What about the “Thermal transition midpoint temperature of HEWL” value [1, 6] of the same substance?
Its value is 346.39 and 346.37.

What about the “Enthalpy of unfolding of HEWL” value [1, 7] of the same substance?
The value was 45229.5 cal/mol and 45580.5 cal/mol and 49716 cal/mol.

What about the “Thermal transition midpoint temperature of HEWL” value [1, 7] of the same substance?
The value was 346.3 and 346.35 and 346.37.

What about the “Enthalpy of unfolding of HEWL” value [1, 8] of the same substance?
The value was 38900 cal/mol and 36400 cal/mol and 39300 cal/mol.

And the “Thermal transition midpoint temperature of HEWL” value [1, 8]?
The value was 346.29 and 346.02 and 346.35.

And the “Thermal transition midpoint temperature of HEWL” value ([1]; stored at 100 mg/ml in NaOAc, 0 months)?
The value was 346.92 and 346.45 and 347.06.

And the “Thermal transition midpoint temperature of HEWL” value ([1]; stored at 100 mg/ml in NaOAc, 1 month)?
Its value is 345.92 and 346.17 and 345.84.

And the “Thermal transition midpoint temperature of HEWL” value ([1]; stored at 100 mg/ml in NaOAc, 2 months)?
The value was 345.78 and 346 and 345.69.

And the “Thermal transition midpoint temperature of HEWL” value ([1]; stored at 100 mg/ml in NaOAc, 3 months)?
Its value is 345.79 and 345.9 and 345.66.

What about the “Thermal transition midpoint temperature of HEWL” value ([1]; stored at 100 mg/ml in NaOAc, 4 months) of the same substance?
Its value is 345.47 and 345.41 and 345.51.

And the “Thermal transition midpoint temperature of HEWL” value ([1]; stored at 100 mg/ml in NaOAc, 5 months)?
The value was 345.39 and 345.41.

What about the “Gibbs free energy change at 25 C.” value ([2]; 0% w/w CDHP) of the same substance?
The value was 15577.94 cal/mol and 14496.3 cal/mol and 15030.24 cal/mol.

What about the Tm ([2]; 0% w/w CDHP in 0.1M NaOAc) of the same substance?
The Tm was 75.18 °C and 75.19 °C and 75.25 °C.

And the ΔH ([2]; 0% w/w CDHP in 0.1M NaOAc)?
Its ΔH is 104019 cal/mol and 107800 cal/mol and 100216 cal/mol.

What about the ΔS ([2]; 0% w/w CDHP in 0.1M NaOAc) of the same substance?
Its ΔS is 298.62 cal/mol K and 309.47 cal/mol K and 287.65 cal/mol K.

What about the “Gibbs free energy change at 25 C.” value ([2]; 5% w/w CDHP) of the same substance?
Its value is 15918.62 cal/mol and 15480.14 cal/mol and 14730.02 cal/mol.

And the Tm ([2]; 5% w/w CDHP in 0.1M NaOAc)?
Its Tm is 76.08 °C and 76.07 °C and 75.4 °C.

And the ΔH ([2]; 5% w/w CDHP in 0.1M NaOAc)?
The ΔH was 100408 cal/mol and 108540 cal/mol and 106838 cal/mol.

What about the ΔS ([2]; 5% w/w CDHP in 0.1M NaOAc) of the same substance?
Its ΔS is 287.51 cal/mol K and 310.81 cal/mol K and 306.57 cal/mol K.

What about the “Gibbs free energy change at 25 C.” value ([2]; 10% w/w CDHP) of the same substance?
Its value is 15052.44 cal/mol and 16934.42 cal/mol and 15295.08 cal/mol.

And the Tm ([2]; 10% w/w CDHP in 0.1M NaOAc)?
Its Tm is 76.08 °C and 76.10 °C and 77.09 °C.

And the ΔH ([2]; 10% w/w CDHP in 0.1M NaOAc)?
Its ΔH is 104260 cal/mol and 102581 cal/mol and 113549 cal/mol.

What about the ΔS ([2]; 10% w/w CDHP in 0.1M NaOAc) of the same substance?
The ΔS was 298.54 cal/mol K and 293.72 cal/mol K and 324.21 cal/mol K.

And the “Gibbs free energy change at 25 C.” value ([2]; 20% w/w CDHP)?
The value was 18362.96 cal/mol and 17405.26 cal/mol and 17754.96 cal/mol.

What about the Tm ([2]; 20% w/w CDHP in 0.1M NaOAc) of the same substance?
Its Tm is 78.82 °C and 78.94 °C and 78.79 °C.

And the ΔH ([2]; 20% w/w CDHP in 0.1M NaOAc)?
The ΔH was 115791 cal/mol and 119528 cal/mol and 113549 cal/mol.

What about the ΔS ([2]; 20% w/w CDHP in 0.1M NaOAc) of the same substance?
The ΔS was 328.98 cal/mol K and 339.48 cal/mol K and 322.63 cal/mol K.

And the “Gibbs free energy change at 25 C.” value ([2]; 20% w/w Choline Chloride)?
Its value is 13397.9 cal/mol and 12597.32 cal/mol and 12725.42 cal/mol.

What about the Tm [2, 9] of the same substance?
Its Tm is 72.47 °C and 72.62 °C and 72.36 °C.

And the ΔH [2, 9]?
Its ΔH is 92354 cal/mol and 96972 cal/mol and 91615 cal/mol.

What about the ΔS [2, 9] of the same substance?
Its ΔS is 267.21 cal/mol K and 280.45 cal/mol K and 265.16 cal/mol K.

What about the “Gibbs free energy change at 25 C.” value ([2]; 30% tw/w CDHP) of the same substance?
Its value is 20716 cal/mol and 17097.4 cal/mol and 22407.08 cal/mol.

What about the Tm ([2]; 30% w/w CDHP in 0.1M NaOAc) of the same substance?
Its Tm is 81.86 °C and 82.00 °C and 81.80 °C.

And the ΔH ([2]; 30% w/w CDHP in 0.1M NaOAc)?
Its ΔH is 139533 cal/mol and 128741 cal/mol and 106557 cal/mol.

And the ΔS ([2]; 30% w/w CDHP in 0.1M NaOAc)?
The ΔS was 393.04 cal/mol K and 362.5 cal/mol K and 300.2 cal/mol K.

And the “Gibbs free energy change at 25 C.” value ([2]; 40% w/w CDHP)?
The value was 25634 cal/mol and 23830.4 cal/mol and 24001.8 cal/mol.

What about the Tm ([2]; 40% w/w CDHP in 0.1M NaOAc) of the same substance?
The Tm was 86.27 °C and 86.39 °C and 86.37 °C.

And the ΔH ([2]; 40% w/w CDHP in 0.1M NaOAc)?
Its ΔH is 140490 cal/mol and 149751 cal/mol and 139216 cal/mol.

What about the ΔS ([2]; 40% w/w CDHP in 0.1M NaOAc) of the same substance?
Its ΔS is 390.9 cal/mol K and 416.5 cal/mol K and 307.2 cal/mol K.

What about the “enzyme activity over time” value [3] of the same substance?
The value was “degrades faster”.

And the “formulated protein contained in the pellet” value [4]?
Its value is ~90%.

What about the “formulated protein found in the supernatant” value [4] of the same substance?
The value was “about 10%”.

And the “decrease of thermal transition midpoint temperature at the higher concentration” value [5]?
Its value is ~5 °C.
